Where a SMILES comes first, the peptide text is derived from it. The star is where a group is joined. Cbz = O=C(OCc1ccccc1)*; CH2F = FC*
What was measured:
Gpx4 = assay: Immunoblotting of Gpx4 in POMCha^Δ1-26-expressing N43/5 cells treated with degradation inhibitors; type: cell-based, mouse; conditions: 8 hours
Protocol: To determine whether full-length POMCha or cytosolic POMCha^[…] regulated the expression of Gpx4 protein, which was known to be degraded by ferroptosis induction, the mRNA level of Gpx4 was analyzed by qRT-PCR in […]/5 cells overexpressing full-length POMCha or cytosolic POMCha^[…], and subjected to CHX-chase assay. In addition, since Gpx4 degradation occurred through chaperone-mediated autophagy (CMA), macroautophagy, or the Ub-proteasome system, […]/5 cells overexpressing POMCha^[…] were treated with a lysosomal inhibitor such as chloroquine (CQ) or BafA1 (bafilomycin A1), a proteasome inhibitor MG132, or a macroautophagy inhibitor 3-MA (3-methyladenine), and the expression of Gpx4 protein was analyzed by immunoblotting. In addition, the expression of lysosome-associated protein 2A (Lamp2a), heat shock chaperones Hsc70 and Hsp90 was confirmed by immunoblotting in […]/5 cells overexpressing POMCha^[…], and changes in Gpx4 were analyzed by treatment with Lamp2a-specific siRNA (SCBT, sc-35791).

[1] = tested on: POMCha-overexpressing Marchf6-KO N43/5 cells; assay: Cell viability (CellTiter-Glo) of POMCha-overexpressing Marchf6-KO N43/5 cells; type: cell-based, mouse; conditions: for reduced viability of POMCha-overexpressing Marchf6-deficient N43/5 cells, effect of ectopic expression: ectopic expression by transfection
Protocol: To understand the functional or mechanistic association between Marchf6-mediated POMC degradation and ferroptosis, lipid ROS levels were compared in N43/5 cells overexpressing POMCha using a lipid peroxidation sensor C11-BODIPY^581/591. Specifically, WT or Marchf6-KO N43/5 cells were transfected with pCH4129 (POMCha) for 48 hours, and the medium was replaced with a culture medium containing 2 μM C11-BODIPY^581/591 (Thermo Fisher Scientific, D3861). The cells were incubated at 37° C. for 30 minutes, and the fluorescent probe-treated cells were trypsinized, transferred to a 15 ml Falcon tube, washed three times with 1 ml of ice-cold PBS, and then transferred to an ice-cold round-bottom polystyrene tube (Corning, 352235). The amount of intracellular lipid ROS in […] was measured using CytoFLEX LX (Beckman Coulter) using fluorescein isothiocyanate (FITC) and analyzed using FlowJo v10.8.1 (BD Bioscience). In addition, cell viability was analyzed using a CellTiter-Glo luminescent 3D cell viability assay kit (Promega, G9241) and a multimode plate reader (TECAN, Spark 10 M). At this time, when the inhibition of cell death was evaluated, WT or Marchf6-KO N43/5 cells expressing pCH60 (empty vector) or pCH4129 (POMCha) (final concentration of […] each) were treated with 5 μM Fer-1, 20 μM Z-VAD-FMK or 40 μM Nec-1, and incubated for 24 hours, and cell viability was analyzed. In addition, the intracellular NADP(H) level was measured using a NADP/NADPH-Glo assay kit (Promega, G9081) and a multimode plate reader (TECAN, Spark 10 M). Further, LDH activity was measured using the Cytotoxicity Detection Kit Plus (LDH) (Sigma, 4744926001).
Through Examples, since Marchf6 mediated the degradation of POMC, it was expected that loss of Marchf6 would make POMC neurons hypersensitive to POMC-induced ferroptosis. Therefore, pCH60 (empty vector), pCH879 (Marchf63f), pCH880 (Marchf6flag^C9A), or pCH4170 (Marchf6flag^P460A) was transfected into WT or Marchf6-KO N43/5 cells, and the degree of ferroptosis induction in POMC neurons was analyzed as in Example 6-1.

POMC = biological target: T1, POMC (Homo sapiens, UniProt P01189); assay: Chemical crosslinking-based reciprocal co-immunoprecipitation assay in HEK293T cells; type: binding; conditions: DSP crosslinking
T1 construct: expressed in transfected cells; host or cells: HEK293T
T1 sequence (P01189 1-267): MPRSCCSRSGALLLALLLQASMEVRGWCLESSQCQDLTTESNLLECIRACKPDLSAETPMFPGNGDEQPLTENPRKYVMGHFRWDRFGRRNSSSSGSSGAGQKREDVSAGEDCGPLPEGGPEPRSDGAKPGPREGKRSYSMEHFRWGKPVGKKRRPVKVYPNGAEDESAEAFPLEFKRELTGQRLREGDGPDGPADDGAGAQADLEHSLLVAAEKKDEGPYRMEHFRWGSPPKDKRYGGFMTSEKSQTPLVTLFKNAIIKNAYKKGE
Protocol: For the chemical crosslinking-based reciprocal co-immunoprecipitation assay, HEK293T cells were incubated at […] in a 10-cm dish plate and co-transfected with […] of pCH60 (empty vector) or pCH4129 (exogenous C-terminally hemagglutinin (ha)-tagged POMC: POMCha) and pCH879 (wild-type C-terminal triple flag-tagged Marchf6: Marchf63f) or pCH4170 (Marchf6^P460A) and incubated for 48 hours. The cells were washed with PBS, treated with 1 mM DSP [dithiobis(succinimidyl propionate)] (Thermo Fisher, 22585), and then the crosslinked cells were lysed and immunoprecipitated. The beads were washed three times with an IP-wash buffer (20 mM Tris-HCl, 137 mM NaCl, 0.1% NP-40, 2 mM EDTA, 10% glycerol) and bound proteins were eluted with a 2× SDS sample buffer. For immunoprecipitation with FLAG-agarose (Sigma-Aldrich, A2220), a 3× FLAG peptide (Protein Ark, GEN-3XFLAG-5) was used. Thereafter, the eluate was denatured and heated at 37° C. for 20 minutes, and SDS-PAGE and immunoblotting were performed using the corresponding antibody.

[2] = tested on: Gpx4, CHOP, Nox2, and Nox4; assay: Immunoblotting of Gpx4, CHOP, Nox2 and Nox4 in POMCha-overexpressing Marchf6-KO N43/5 cells; type: cell-based, mouse

Molecule: CCN(CC)CCCC(C)Nc1ccnc2cc(Cl)ccc12 (stereo not drawn) [CQ, chloroquine]
- Gpx4 downregulation in POMCha^Δ1-26-expressing N43/5 cells, effect of treatment (Gpx4; CQ 50 μM): restored

Molecule: CN1C(=O)C(Cc2c[nH]c3ccccc23)NC1=S (stereo not drawn) [Nec-1, necrostatin-1, reference compound]
- decreased viability of POMCha-overexpressing Marchf6-KO N43/5 cells, effect of treatment ([1]; 40 μM Nec-1, 24 hours): not restored

Molecule: COC(=O)C[C@H](NC(=O)[C@H](C)NC(=O)[C@@H](NC(=O)OCc1ccccc1)C(C)C)C(=O)CF [Z-VAD, Z-VAD-FMK, reference compound] (Cbz-Val-Ala-Asp(OMe)-CH2F)
- decreased viability of POMCha-overexpressing Marchf6-KO N43/5 cells, effect of treatment ([1]; 20 μM Z-VAD-FMK, 24 hours): not restored

Molecule: CO/C1=C\C(C)=C\[C@@H](C)[C@@H](O)[C@@H](C)C/C(C)=C/C=C/[C@H](OC)[C@@H]([C@@H](C)[C@@H](O)[C@H](C)[C@@]2(O)C[C@@H](O)[C@H](C)[C@@H](C(C)C)O2)OC1=O [BafA1, bafilomycin A1]
- Gpx4 downregulation in POMCha^Δ1-26-expressing N43/5 cells, effect of treatment (Gpx4; BafA1 100 nM): restored

B1: Marchf63f^P460A: POMC-inaccessible Marchf6 mutant with Pro460-to-Ala mutation in the POMC-interacting region (pCH4170) (protein, UniProt Q6ZQ89 1-909, looked up, variant P460A)
E3 ubiquitin-protein ligase …: MDTAEEDICRVCRSEGTPEKPLYHPCVCTGSIKFIHQECLVQWLKHSRKEYCELCKHRFAFTPIYSPDMPSRLPIQDIFAGLVTSIGTAIRYWFHYTLVAFAWLGVVPLTACRIYKCLFTGSVSSLLTLPLDMLSTENLLADCLQGCFVVTCTLCAFISLVWLREQIVHGGAPIWLEHAAPPFNAAGHHQNEAPVGGNGAENPAADQPANPAGENAVLGENPDAQDGQAEEEEEDNEEEDDAGVEDAADANNGAQDDMNWNALEWDRAAEELTWERMLGLDGSLVFLEHVFWVVSLNTLFILVFAFCPYHIGHFSLVGLGFEEHVQASHFEGLITTIVGYILLAITLIICHALATLVKFHRSRRLLGVCYIVVKVSLLVVVEIGVFPLICGWWLDICSLEMFDATLKDRELSFQSAPGTTMFLHWLVGMVYVFYFASFILLLREVLRPGVLWFLRNLNDADFNPVQEMIHLPIYRHLRRFILSVIVFGSIVLLMLWLPIRIIKSLLPNFLPYNVMLYSDAPVSELSLELLLLQVVLPALLEQGHTRQWLKGLVRAWTVTAGYLLDLHSYLLGDQEENENSANQQVNNNQPARNNNAVPAGEGLHAAHQAILQQGGPVGFQPYRRPLNFPLRIFLLIVFMCITLLIASLICLTLPVFAGRWLMSFWTGTAKIHELYTAACGLYVCWLTIRAVTVLVAWMPQGRRVIFQKVKEWSLMIMKTLIVAVLLAGVVPLLLGLLFELVIVAPLRVPLDQTPLFYPWQDWALGVLHAKIIAAITLMGPQWWLKTVIEQVYANGIRNIDLHYIIRKLAAPVISVLLLSLCVPYVIASGAVPLLGVTAEMQNLVHRRIYPFLLMVVVLMGILSFQVRQFKRLYEHIKNDKYLVGQRLVNYERKSGKQGPSTPPPVSSQE
modifications: C-terminal triple FLAG tag
- binding of full-length POMC (co-immunoprecipitation) (POMC): did not bind
- expression levels of Gpx4, CHOP, Nox2, and Nox4 proteins, effect of expression of construct [2]: not restored
- reduced viability of POMCha-overexpressing Marchf6-deficient N43/5 cells, effect of ectopic expression [1]: not restored

B2: Marchf63f^C9A: catalytically inactive Marchf6 mutant (pCH880) (protein, UniProt Q6ZQ89 1-909, looked up, variant C9A)
E3 ubiquitin-protein ligase …: MDTAEEDIARVCRSEGTPEKPLYHPCVCTGSIKFIHQECLVQWLKHSRKEYCELCKHRFAFTPIYSPDMPSRLPIQDIFAGLVTSIGTAIRYWFHYTLVAFAWLGVVPLTACRIYKCLFTGSVSSLLTLPLDMLSTENLLADCLQGCFVVTCTLCAFISLVWLREQIVHGGAPIWLEHAAPPFNAAGHHQNEAPVGGNGAENPAADQPANPAGENAVLGENPDAQDGQAEEEEEDNEEEDDAGVEDAADANNGAQDDMNWNALEWDRAAEELTWERMLGLDGSLVFLEHVFWVVSLNTLFILVFAFCPYHIGHFSLVGLGFEEHVQASHFEGLITTIVGYILLAITLIICHALATLVKFHRSRRLLGVCYIVVKVSLLVVVEIGVFPLICGWWLDICSLEMFDATLKDRELSFQSAPGTTMFLHWLVGMVYVFYFASFILLLREVLRPGVLWFLRNLNDPDFNPVQEMIHLPIYRHLRRFILSVIVFGSIVLLMLWLPIRIIKSLLPNFLPYNVMLYSDAPVSELSLELLLLQVVLPALLEQGHTRQWLKGLVRAWTVTAGYLLDLHSYLLGDQEENENSANQQVNNNQPARNNNAVPAGEGLHAAHQAILQQGGPVGFQPYRRPLNFPLRIFLLIVFMCITLLIASLICLTLPVFAGRWLMSFWTGTAKIHELYTAACGLYVCWLTIRAVTVLVAWMPQGRRVIFQKVKEWSLMIMKTLIVAVLLAGVVPLLLGLLFELVIVAPLRVPLDQTPLFYPWQDWALGVLHAKIIAAITLMGPQWWLKTVIEQVYANGIRNIDLHYIIRKLAAPVISVLLLSLCVPYVIASGAVPLLGVTAEMQNLVHRRIYPFLLMVVVLMGILSFQVRQFKRLYEHIKNDKYLVGQRLVNYERKSGKQGPSTPPPVSSQE
modifications: C-terminal triple FLAG tag
- expression levels of Gpx4, CHOP, Nox2, and Nox4 proteins, effect of expression of construct [2]: not restored
- reduced viability of POMCha-overexpressing Marchf6-deficient N43/5 cells, effect of ectopic expression [1]: not restored

— patent publication US20260258121A1, “USES OF POMC-SPECIFIC ANTIBODY AND MARCHF6” (KOREA UNIVERSITY RESEARCH AND BUSINESS FOUNDATION, priority 2023, published 2026)
